Measurements published in US20250340660A1 (published 2025).

T1: mouse CD30L (mouse, UniProt P32972 68-239, limits assumed)
T1 construct: also called rmCD30L
T1 sequence (looked up): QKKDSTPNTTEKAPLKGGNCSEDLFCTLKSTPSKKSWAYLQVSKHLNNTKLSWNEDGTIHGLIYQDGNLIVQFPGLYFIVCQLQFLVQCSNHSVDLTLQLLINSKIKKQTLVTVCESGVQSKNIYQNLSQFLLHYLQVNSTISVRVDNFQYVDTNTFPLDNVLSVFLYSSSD

T2: human CD30L expressed on cells (B16-huCD30L; HEK293 cells over-expressing TNFSF8) (human, UniProt P32971 1-234)
T2 sequence: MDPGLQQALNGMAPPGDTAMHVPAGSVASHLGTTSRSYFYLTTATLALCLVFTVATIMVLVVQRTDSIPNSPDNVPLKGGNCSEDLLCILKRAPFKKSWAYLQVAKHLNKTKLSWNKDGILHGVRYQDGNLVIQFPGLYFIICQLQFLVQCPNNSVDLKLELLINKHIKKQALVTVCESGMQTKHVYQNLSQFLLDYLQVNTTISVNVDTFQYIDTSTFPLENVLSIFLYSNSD

T3: cynomolgus CD30L expressed on HEK293 cells (cynomolgus, UniProt A0A7N9CVX7 1-234)
T3 sequence: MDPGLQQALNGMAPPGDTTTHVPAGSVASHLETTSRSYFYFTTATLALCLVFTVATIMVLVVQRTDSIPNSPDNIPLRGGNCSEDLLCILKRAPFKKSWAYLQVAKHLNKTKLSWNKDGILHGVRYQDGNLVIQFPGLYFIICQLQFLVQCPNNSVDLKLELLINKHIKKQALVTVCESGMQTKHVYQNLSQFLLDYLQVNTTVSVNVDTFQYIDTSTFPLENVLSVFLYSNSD

T4: human CD30L expressed on cells (human, UniProt P32971 1-234)
T4 construct: whole, on cells; The assay field of each row tells which cells carried it; also called huCD30L; B16-huCD30L cells
T4 sequence (looked up): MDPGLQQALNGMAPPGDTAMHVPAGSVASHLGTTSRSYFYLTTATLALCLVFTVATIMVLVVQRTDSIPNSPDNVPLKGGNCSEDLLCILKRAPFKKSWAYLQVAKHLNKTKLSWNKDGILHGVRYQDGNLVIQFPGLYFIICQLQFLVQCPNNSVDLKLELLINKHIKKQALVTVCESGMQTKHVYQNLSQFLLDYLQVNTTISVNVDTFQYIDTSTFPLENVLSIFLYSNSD

T5: recombinant human CD30L protein (human, UniProt P32971 63-234, limits assumed)
T5 construct: Used for ELISA, BLI, Carterra, KinExA; also called rhCD30L; purified human CD30L
T5 sequence (looked up): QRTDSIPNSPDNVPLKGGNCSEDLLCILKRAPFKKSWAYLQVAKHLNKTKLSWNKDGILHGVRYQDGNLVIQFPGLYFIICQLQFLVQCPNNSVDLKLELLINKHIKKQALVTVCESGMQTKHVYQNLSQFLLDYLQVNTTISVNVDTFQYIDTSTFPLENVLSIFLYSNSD


Key:
mouse CD30L = target: T1, mouse CD30L; test: screening of a rat campaign with mouse CD30L antigen
[1] = target: T2, human CD30L expressed on cells …; test: cell-based or functional assay
[2] = target: T3, cynomolgus CD30L expressed on HEK293 …; test: cell-based or functional assay
[3] = target: T4, human CD30L expressed on cells; test: flow cytometry, labelled antibody on PMA/ionomycin-stimulated primary lymphocytes, Patient 3 (UC, #02-180)
Text: (§1) Peripheral blood mononuclear cells (PBMCs) were isolated from freshly collected whole blood from Ulcerative Colitis (UC) and Crohn's Disease (CD) patients, by conventional density gradient centrifugation. […] After washing to remove unbound antibodies, the cells were fixed in a paraformaldehyde solution and analyzed by flow cytometry to quantify cell surface antibody binding.

[4] = target: T4, human CD30L expressed on cells; test: flow cytometry, labelled antibody on PMA/ionomycin-stimulated primary lymphocytes, Patient 1 (CD, #04-021)
Text: as §1

[5] = target: T4, human CD30L expressed on cells; test: flow cytometry, labelled antibody on PMA/ionomycin-stimulated primary lymphocytes, Patient 2 (UC, #03-041)
Text: as §1

[6] = target: T4, human CD30L expressed on cells; test: flow cytometry, labelled antibody on PMA/ionomycin-stimulated primary lymphocytes, Patient 4 (CD, #01-051)
Text: as §1

[7] = target: T5, recombinant human CD30L protein; test: KinExA, Fab in solution; reference: Fab of Ref1
Text: A KD analysis requires immobilization of one interaction partner to a solid phase which is then used as a probe to capture the other interaction partner, the constant binding partner (Fab). […] The solutions are then briefly exposed to the solid phase and a portion of free Fab is captured. The captured Fab is then labeled with a fluorescent secondary molecule. The short contact time with the solid phase is less than the time needed for dissociation of the pre-formed complex in solution, thus competition between the solution and the solid phase titrated binding partner is kinetically excluded.

[8] = target: T2, human CD30L expressed on cells …; test: flow cytometry, blocking of recombinant CD30-Fc binding to CD30L-expressing cells; reference Ref1
[9] = target: T3, cynomolgus CD30L expressed on HEK293 …; test: as above

| EC50 [3] [nM] | EC50 [4] [nM] | EC50 [5] [nM] | EC50 [6] [nM] | Binder | further results |
| --- | --- | --- | --- | --- | --- |
| – | – | – | – | clone 111, function blocking rat anti-mouse CD30L antibody (antibody, mouse IgG2a, V domains shown, Rat antibody as found in the screen) VH: EVKLQQSGDELVRPGASVKMSCKASGYTFTDYAMHWVKQSPGQGLEWIGSIIPLIDTTSYNQKFKGKATLTADKSSNTAYMELSRLTSEDSAVYYCARLGSRYLEGFDYWGQGVMVTVSS VL: DIQMTQSPSSMSASLGDTVTINCLASQDIGNYLSWYQQKPGKSPKLMIYGATNLEDGVPSRFSGSGSGSDYSLTINSLGYDDEGIYHCHQYYEYPLTFGSGTKLEIK | binding result (mouse CD30L): binds |
| – | – | – | – | anti-CD30L antibody Clone 2 (parental) (antibody, V domains shown) VH: EVQLVESGGGLVQPGRSLRLSCAASGFNFDDYAMHWVRQAPGKGLEWVSGISWRSGNIGYAGSVKGRFTISRDNAKNSLYLQMNSLRPEDSALYYCAKDKGIGFNWNYEGFDYWGQGTLVTVSS VL: DIQMTQSPSSLSASVGDRVTITCRASQGISNHLAWFQQKPGKAPKSLIYAASSLQSGVPSKFSGSGSGTDFTLTISSLQPEDFATYYCQQYVTYPLTFGGGTKVEIK | fold better IC50 than Ref1, IL-8 release dual cell assay [1]: 2 fold; fold better IC50 than Ref1, IL-8 release dual cell assay [2]: 2.6 fold |
| 1.71 | 2.4 | 1.55 | 1.72 | Clone 2, fluorescently labeled (format not stated in Table 7) (antibody, V domains shown, fluorescent label (site not stated), The variable domains are those of parental clone 2) VH: EVQLVESGGGLVQPGRSLRLSCAASGFNFDDYAMHWVRQAPGKGLEWVSGISWRSGNIGYAGSVKGRFTISRDNAKNSLYLQMNSLRPEDSALYYCAKDKGIGFNWNYEGFDYWGQGTLVTVSS VL: DIQMTQSPSSLSASVGDRVTITCRASQGISNHLAWFQQKPGKAPKSLIYAASSLQSGVPSKFSGSGSGTDFTLTISSLQPEDFATYYCQQYVTYPLTFGGGTKVEIK | – |
| – | – | – | – | Fab of anti-CD30L clone 2 germlined (Fab, V domains shown, Fab; also called germlined-clone-2 Fab; germlined-clone-2-Fab) VH: EVQLVESGGGLVQPGRSLRLSCAASGFNFDDYAMHWVRQAPGKGLEWVSGISWRSGNIGYADSVKGRFTISRDNAKNSLYLQMNSLRAEDTALYYCAKDKGIGFNWNYEGFDYWGQGTLVTVSS VL: DIQMTQSPSSLSASVGDRVTITCRASQGISNHLAWFQQKPGKAPKSLIYAASSLQSGVPSRFSGSGSGTDFTLTISSLQPEDFATYYCQQYVTYPLTFGGGTKVEIK | fold KD against the reference 1 anti-CD30L [7]: 4.2 fold |
| – | – | – | – | anti-CD30L antibody clone 2 germlined (antibody, V domains shown, also called germlined clone 2) VH: EVQLVESGGGLVQPGRSLRLSCAASGFNFDDYAMHWVRQAPGKGLEWVSGISWRSGNIGYADSVKGRFTISRDNAKNSLYLQMNSLRAEDTALYYCAKDKGIGFNWNYEGFDYWGQGTLVTVSS VL: DIQMTQSPSSLSASVGDRVTITCRASQGISNHLAWFQQKPGKAPKSLIYAASSLQSGVPSRFSGSGSGTDFTLTISSLQPEDFATYYCQQYVTYPLTFGGGTKVEIK | fold better IC50 than Ref1 [8]: 2.74 fold; fold better IC50 than Ref1 [9]: 2.13 fold |
| 5.57 | 7.45 | 5.43 | 4.53 | Clone 1, fluorescently labeled (format not stated in Table 7) (antibody, V domains shown, fluorescent label (site not stated), The variable domains are those of parental clone 1) VH: QVQLQESGPGLVKPSETLSLTCTVSGGSISGYYWSWIRQPPVKGLEWIGYIFYSGYTKYNPSLKSRVTISVDTSKNQFSLKLSSVTAADTAVYYCARDRWDFDYWGQGALVTVSS VL: AIQMTQSPSYLSASVGDRVTIACRASQGIRNNLGWYQQKPGKAPKLLIYAESSLQSGVPSRFSGSGSGTDFTLTISSLQPEDFATYYCLQDFNYPYTFGQGTKLEIK | – |
